Assay results reported in doi:10.1101/2024.03.03.583237 (bioRxiv, 2024).

How the values were obtained:
Assay in all cases: live-cell binding assay
[1] = target: SARS-CoV-2 NTD-mFc (SARS-CoV-2 Wuhan-Hu-1 (NC_045512), UniProt P0DTC2)
[2] = target: RaTG13 NTD-mFc (Bat coronavirus RaTG13, UniProt A0ABF7PLN6)
[3] = target: SARS-CoV-1 NTD-mFc (SARS-CoV-1 (NC_004718, Tor2), UniProt P59594)
[4] = target: ZC45 NTD-mFc (Bat SARS-like coronavirus ZC45 …, UniProt A0A2R3SUW7)

B1: S2L20-CVR (scFv, V domains shown)
VH: EVQLVESGGGVVQPGGSLRLSCAASGFTFNSYGMHWVRQAPGKGLEWVAFIRYDGGNKYYADSVKGRFTISRDNSKNTLYLQMKSLRAEDTAVYYCANLKDSRYSGSYYDYWGQGTLVTVS
VL: not shown
binding result [1]: binds | binding result [2]: binds | binding result [3]: no binding | binding result [4]: no binding
